# Assay: soluble on expression in E. coli; label from the status in PepcDB or PDB records
row,Sequence,soluble on expression in E. coli
1,MGSDKIHHHHHHMLKLLKPKHRSILGIDISSSAVKILEISGSGEDICVEGYGREEIPASALEGNIIKDVDVVANCIKKLVERLKFTSKNVALAVPDSAVISKVVQINEGLTDLEMEELVVIEADKYIPYPIDEINLDFEVLGHSAKSSSLLDVLIVASRAENVNTRVEAAHRAGLEPKVVDVESYAVERSVQQIAQELPASGQDKIVAIVDIGANYTHLFVLHGMRLIFSREEKFGGMQLVEAIAEHYHMNLEQAIALKNQGKLPEDYESAVLEPFKDMILLQIKRTLQFFYSTSQHGFVDHILLAGGMARQSGLAALIQEQLGVTTTVANPLSHMSFGKKVNLDVINSDAPTLMVACGLALRHVE,not soluble
2,MGSDKIHHHHHHMNWESTPVLMLTPFHHMQRGNTLTTLRLQTALRQRGFTVDLLSLEEKGWRDSLREYLINGKYSLVHGFNARYFGGVLTEFPELRNLPLILTTTGSDLNYDLKNSGRDLVLAAFAAAEKIIVFHDYFQKLIGDAYPEYCSKLSTIPQGVWLEESPPIKREMIGLAADNIVFALPSGLRPVKDIELAIDGLQRVYKDFPELRLLIIGPVIDRDYGQKIKQRVSELNWVFYLGEVLHSDMGNYLSLADVILNTSQAEGQPQGLLEGMSQNKPAILTAVPGNLDIIEEGRQGYYVRNQEELAVAARKMLSSAESRQRMGWEAGKLVKEKFSLAREIQSYAELYRQVLSP,not soluble
3,MVKGPGLYTEIGKKARDLLYKDHNSDQKFSITTFSPAGVAITSTGTKKGDLLLGDVAFQSRRKNITTDLKVCTDSTFLITATVDEAAPGLRSIFSFKVPDQNSGKVELQYLHEYAGISTSMGLTQNPTVNFSGVIGSNVLAVGTDVSFDTKSGNFTKINAGLSFTKEDLIASLTVNDKGDLLNASYYHIVNPLFNTAVGAEVSHKLSSKDSTITVGTQHSLDPLTSVKARVNSAGIASALIQHEWKPKSFFTISGEVDTKSIDKSAKVGLALALKP,soluble
4,MGSDKIHHHHHHMAIACVMTRASCGVQAPKVIVEVHLSNGLPGFSLVGLPEASVKEAKERVRSALINAGFEFPMQRITVNLAPADLPKQGGRYDLPIAIGILAASEQIPKKAIADAEFVGELALTGQVRPCVGLLPAIIAARDDGHPMFMPLDNRHEAELVGYQQCHFVADLQHLAAFIHGQGQLPKVDNQTQWITESAVDPKLCLSDVIGQYQAKQGLEIAAAGGHNLLLMGPPGTGKSMLASRIIPLLPNLSYQEAIEVAAIHSVAGLNTPSHNFLQRPFRSPHHTCSAISLVGGGSVPKPGEISLAHRGILFLDELPEFPRRVLDCLREPMETGEVVISRAAAKLTFASRFQLIAAMNPSPCGNVDKARSTPDQIQRYLSRLSGPFLDRFDLTVDVPKLPSGALSQANIQAETSISVAARVRKAREKQLERSGVLNNELSPKALKKVANLDQANLIFLEQSVQLLGLSVRSFHKIQRVACTIADLQEEAKVDRAHLAQALGYRAMDRLIARLRQQ,not soluble
5,MNPQTDNVFYATNAFTGEALPLAFPVHTEVEVNQAATAAAKVARDFRRLNNSKRASLLRTIASELEARSDDIIARAHLETALPEVRLTGEIARTANQLRLFADVVNSGSYHQAILDTPNPTRAPLPKPDIRRQQIALGPVAVFGASNFPLAFSAAGGDTASALAAGCPVIVKGHTAHPGTSQIVAECIEQALKQEQLPQAIFTLLQGNQRALGQALVSHPEIKAVGFTGSVGGGRALFNLAHERPEPIPFYGELGAINPTFIFPSAMRAKADLADQFVASMTMGCGQFCTKPGVVFALNTPETQAFIETAQSLIRQQSPSTLLTPGIRDSYQSQVVSRGSDDGIDVTFSQAESPCVASALFVTSSENWRKHPAWEEEIFGPQSLIVVCENVADMLSLSEMLAGSLTATIHATEEDYPQVSQLIPRLEEIAGRLVFNGWPTGVEVGYAMVHGGPYPASTHSASTSVGAEAIHRWLRPVAYQALPESLLPDSLKAENPLEIARAVDGKAAHS,soluble
6,SASFDGPKFKMTDGSYVQTKTIDVGSSTDISPYLSLIREDSILNGNRAVIFDVYWDVGFPETETKTKTSGWSLSSVKLSTRNLCLFLRLPKPFHDNLKDLYRFFASKFVTFVGVQIEEDLDLLRENHGLVIRNAINVGKLAAEARGTLVLEFLGTRELAHRVLWSDLGQLDSIEAKWEKAGPEEQLEAAAIEGWLIVNVWDQLSDE,soluble
7,MELKDRIKAARKHAHLSQVQLAQAVGMTQTSISDLERGKSRATSFVAQIAGACGVNPLWLAEGRGEMLAERGQANAGPNASWLGAVESWDDETPLDADEIELPFYKEIELSGGKGSTVILQTGGRKLRFGKYTLRKKNIDPASAACVTVSGNSMEPVLPDGSTVGVDTSARTIKDGDMYAFDHDGQLRVKLLYRLPGGGLRIRSFNSDEHPDERYEPQEAAEHINVIGRVFWYSVLV,not soluble
8,MDDSQESSFSVSKYETNDDGSMGQFISINECEREIQMLERDIRQQKESSANAKTAITFDQLRKIHTLSTLLGPHKELFFDRICRAADIQRASLKNRLKSNINKFEPSTPLSFQPGFDSQSSLSTTSESQNFVVTPTTLSSLLNNHTRKNHIEMLAPLASEEELMRFPAERQFDLMQIGFSYDEVKQLLEMFEKFKNDVQEINRLHTLTQILNQFCNYISMYAPPNLKMISSAFNLLELGNSAHEVKRVLLKARRREESEESDVSFSKKPRPSSRSPASPNRDDLLLGLDRSPPSDDGTQKV,not soluble
9,KENGKRTEVKIGAKTSVMKEKDGKLFTGKANKETNKVDGANATEDADEGKGLVTAKDVIDAVNKTGWRIKTTDANGQNGDFATVASGTNVTFASGNGTTATVTNGTDGITVKYDAK,soluble
10,MAENFVVVDGGVVAPKGFKANGHKDRKYGAALIYSEADAVAAGVFTTNKVYAHPVALSKDTLVNNNVFRAIVANSGNANCFTKGGMEDAELLVKKAAELLKIPENQVLSASTGVIGRKMPMDIISLEVERAFENITMESSNENASKAIMTTDAFPKTVAVEFEVNGKSVRIGGIAKGAGMIAPNMLHATMLGFITTDIEISKEDLTNSLQKATDESFNNAVVDGDMSTNDTVYVLANAQSGVKYTDCKEEFDHALTYVSKELAKMIVSDGEGAKKLIEATVFGAETKEDAKKASMSIVRSLLLKTAVFGADPNWGRIAAAVGYSGAEMDMNNFDIIISDISSEKQAILVKAGEQIADCGTPELKLAEEIMKEDKIKIIVDLKMGSFENTAFGCDLGYDYVKINSEYTTLEHHHHHH,not soluble
11,MNISIRAETPGDIDAIAHLTEAAFRNETHSSHTEQYIVDALRRAGALTLSLVAEANGQVIGHIAASPVTIDGEAGDWYGLAPLSVAPGRQRQGLGSQLVRRLLTELRLLPAGGCVVLGEPTYYSRFGFRVESGLALPGVPAEYFQAQSFSGRMAQGIVAFHAAFDASG,not soluble
12,MLRRQMSFNGKSDMGILYLVPTPIGNLEDMTFRAIDTLKSVDAIAAEDTRQTKKLCHVYEIETPLVSYHEHNKESSGHKIIEWLKSGKNIALVSDAGLPTISDPGAEIVKDFTDIGGYVVPLPGANAALTALIASGIVPQPFFFYGFLNRQKKEKKKELEALKKRQETIIFYEAPHRLKETLSAMAEILGDREIAVTRELTKKYEEFIRGTISEVIGWANEDQIRGEFCLVVEGSNNEEVDEEEQWWETLTAKEHVEHYISKGATSKEAIKKAAVDRNVPKREVYDAYHIKQLEHHHHHH,not soluble
13,GPGSMTYKLLAPLHPESARAQKIMVAAAYANVDVELKVCQYGQENETPEFARNCSPCMRFPSMQTEEGYLFESNAIMRHIARVEKSGAKLYGATPFESSQVDMWLDFASSELDAHNTPYLMETFAGIPAPESAMATLEESLAGLELWLETRTFLVGERMTVADISVAFALQWVYRMNVKHGEELTKKYRNAYRLYNTVMQQPKTVEVLKQWGATFGPAKAPKKAAEAKPKEGKKPKEAVEDEEEQPAKEEKKSNPLDALPPSSFVLDAYKREYSNTDTRTVAAPYFFEHYDAEGYTCFWARYKYNEDNKKQFMTANLVRGWFQRMEHVRKYAFGVALIIGEDAAHELVSFWVFRGKGMPEIVSEVVDTELFEWEEIKDVQAAKEKITDYLCWEGPTIPRPVLEGRCFK,soluble
14,MGSDKIHHHHHHMRKKPLTIFSDGTLTRRENTLYFESAKGRKPLAIEGIYDIYIYGHVNITSQALHYIAQKGILIHFFNHYGYYDGTFYPRETLLSGDLIIRQAEHYLNKEKRLFLAKSFVTGGTKNMERNLKNWGIKAKLSDYLDELNDARKITEIMNVEARIRQEYYAKWDENLPEEFKIVKRTRRPPKNEMNALISFLNSRLYATIITEIYNTQLAPTISYLHEPSERRFSLSLDLSEIFKPIIADRVANRLVKKGSLKKEHFREDLNGVLLTEEGMKIVTKAYNEELQKSVKHPKIGSNVTRQRLIRLEAYKLIKHLVGVEEYKPLVAWF,not soluble
15,MSNRDQLFKAPPFENHSPLTWYQAASQLPNFIRDDAQAAAIEHLDRLWTELMMFKRKRNRFLGRSLRSPQVPKGLYFYGGVGRGKSFLMDAFFGCLPYRRKRRVHFHAFMAEIHQRLKTLKSESNPLKSVAAEIAKETRVLCFDEFHVSDIADAMILGRLLENLLNEGVVLVATSNYAPSELYPQGQNRSSFLPTIALIESSLTVLNVDGGEDYRLRTLRPAEIFFTPANEENEAKLAKLFKEMTGITDLNPGISTIHGREIPHKAESGRAIWFDFRALCFGPRSQSDYLYLAEHYEMVFISGLEQLSPQEKAEARRLTWLIDVLYDFRVKLCATGAVDVNHIYTEGDFAEEFTRTASRMVEMQSEVYLEQPHLTLSPKASGG,not soluble
16,MGSDKIHHHHHHVHPTLPHAGKNWPLSARDSPATAMAGKGINAVCLFRYQRRWHQSCFILEHAPGTRNPMTWTECLAVTAFGAFVIDRYDWTGTVKRSSNDEELLVHERLGVVSVQTSPLRRAKPALRHLRGLLIEYDCPVECIAVFAAPHCALDPTLPETTLQASELHHFMRTRFNRFRDSHRQYLDSERIAAYLQLHCTDWGENCV,not soluble
17,MKAVSRVHITPHMHWDREWYFTTEESRILLVNNMEEILCRLEQDNEYKYYVLDGQTAILEDYFAVKPENKDRVKKQVEAGKLIIGPWYTQTDTTIVSAESIVRNLMYGMRDCLAFGEPMKIGYLPDSFGMSGQLPHIYNGFGITRTMFWRGCSERHGTDKTEFLWQSSDGSEVTAQVLPLGYAIGKYLPADENGLRKRLDSYFDVLEKASVTKEILLPNGHDQMPLQQNIFEVMDKLREIYPQRKFVMSRFEEVFEKIEAQRDNLATLKGEFIDGKYMRVHRTIGSTRMDIKIAHARIENKIVNLLEPLATLAWTLGFEYHHGLLEKMWKEILKNHAHDSIGCCSDKVHREIVARFELAEDMADNLIRFYMRKIADNMPQSDADKLVLFNLMPWPREEVINTTVRLRASQFNLRDDRGQPVPYFIRHAREIDPGLIDRQIVHYGNYDPFMEFDIQINQIVPSMGYRTLYIEANQPGNVIAAKSDAEGILENAFWQIALNEDGSLQLVDKDSGVRYDRVLQIEESSDDGDEYDYSPAKEEWVITAANAKPQCDIIHEAWQSRAVIRYDMAVPLNLSERSARQSTGRVGVVLVVTLSHNSRRIDVDINLDNQADDHRLRVLVPTPFNTDSVLADTQFGSLTRPVNDSAMNNWQQEGWKEAPVPVWNMLNYVALQEGRNGMAVFSEGLREFEVIGEEKKTFAITLLRGVGLLGKEDLLLRPGRPSGIKMPVPDSQLRGLLSCRLSLLSYTGTPTAAGVAQQARAWLTPVQCYNKIPWDVMKLNKAGFNVPESYSLLKMPPVGCLISALKKAEDRQEVILRLFNPAESATCDATVAFSREVISCSETMMDEHITTEENQGSNLSGPFLPGQSRTFSYRLA,not soluble
18,MTGRESNRIKDAEKKRVLDSTARQRRARKALEALEQDNYHDDPHADLVMSKKLPKFQDSLKTGKEKKGKRKGAEYFLVKYRKNFQQLLEEDKDKQPNYESAAAPAPQKPLRHFCAVCGNFSLYSCTACGTRYCCVRCLQTHQDTRCLKWTALEHHHHHH,not soluble
